Earlier results as cited in PMC4452390.

Target: EGFR (Homo sapiens) (UniProt P00533)

- Kd: 3 nM
Substance: EGF (from UniProt P01133)
